Assay results published in the nanobody polyreactivity screen of Harvey et al. (2022).

Experiment: yeast display, Sf9 membrane polyspecificity reagent, FACS + sequencing; frameworks hold sequencing errors
In short: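 Synthetic nanobody libraries on Saccharomyces cerevisiae BJ5465 were galactose-induced for 36–48 hours, stained 1 hour at 4 °C with 10% biotinylated, detergent-solubilized Sf9 membrane reagent and enriched on streptavidin microbeads. FACS then separated cells into low and high (top ~1%) gates by anti-HA (expression) and streptavidin (reagent binding) fluorescence. Genes were colony-PCR amplified, MiSeq 2 × 250 sequenced and CDR-length filtered. A clone's polyreactivity label is that of its gate of origin.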

| Sequence | polyreactivity (PSR sort gate) |
| --- | --- |
| QVQLVESGGGLVQAGGSLRLSCAASGSTFTGNAMGWYRQAPGKERELVASINGSSGSTYYADSVKGRFTISRDNAKNTVYLQMNSLKPEDTAVYYCAKDSFLHFPLVGWVGLEYWGQGTQVTVSS | low polyreactivity |
| QVQLEESGGGLVQAGGSLRLSCAASGSIFNYYAMGWYRQAPGKERELVAAITTSGGNTYYADSVKGRFTISRDNAKNTVYLQMNSLKPEDTAVYYCNVDARSSYDYWGQGTQVTVSS | low polyreactivity |
| QVQLVESGGGLVQAGGSLRLSCAASGTTFVSYSMGWYRQAPGKEREFVATISISGTSTYYADSVKGRFTISRDNAKNTVYLQMISLKPEDTAVYYCAARLRRRGATQFYRYDYWGQGTQVTVSS | high polyreactivity |
| QVQLVESGGGLVQAGGSLRLSCAASGSTFDPYGKGWYRQAPGKERELVATITYSSGSTSYADSVKGRFTISRDHAKNTVYLQMNSLKPEDTAVYYCAKKYYTGYGYWGQGTQVTVSS | low polyreactivity |
| QVQLVESGGGLVQAGGSLRLSCAASGSIFFDYALGWYRQAPGKERELVARITSSDSTNYADSVKGRFTISRDNAKNTVYLQMNSLKPEDTAVYYCNKDSTGDGYDYWGQGTQVTVSS | low polyreactivity |
| QVQLVESGGGLVQAGGSLRFSCAATGSISYGYAMGWYKQAHGKERELVAAISRRGGTTYFADSVKGRFTISRDNAKNSLYLQINSLKAEDTAVYYCNALLPDLAQYDYWGQGTQVTVSS | high polyreactivity |
| QVQLVESGGGLVQAGGSLRLSCAASGRTLSHYAMGWYRQAPGKERELVAAITRSGGSTYYADSVKGRFTISRDYAKNTVYLQMNSLKPEDTAVYYCNKTLYTTYDYWGQGTQVTVSS | low polyreactivity |
| QVQLVESVGGLVQAGGSLRLSCAASGSIFTYNAMGWYRQAPGKERELVAAITTSGDSTYYADSVKGRFTISRDNAKNTVYLQMNSLKPEDTAVYYCNADWSWYNYYDFDYWGQGTQVTVSS | low polyreactivity |
| QVQLVESGGCLVQAGGSLRLSCAASGSIFSLYAMGWYRQAPGKEWEFVASISRSGGITYYADSVKGRFTISRDNAKNTVYLQMNSLKPEDTAVYYCAAVGWVSYRRYDYWGPGTQVTVSS | high polyreactivity |
| QVQLVESGGGLVQAGGSLRLSCAASGSIFWYYAMGWYRQAPGKERELVAAISASGSSTYYADSVKGRFTISRDNAKNTVYLQMNSLKPEDTAVYDCAATYSLYNDWLYHYFPEEYDYWGQGTQVTVSS | low polyreactivity |
| QVQLVESGGGLVQAGGSLRLSCAASGSTIPPYAMGWYRQAPGKERELVAAITSGGSTYYAESVKGRFTISRDNAKNTVYLQMNSLKPEDTAVYSCAASWDPWEYDYWGQGTQVTVSS | low polyreactivity |
| QVQLVESGGGLVQAGGSLRLSCAASGSIFIGYAMGWYRQAPGKERELVAAITSGSITNYADSVKGRFTISRDNAKNTVYLQMNSLKPEDTAVYYCAADIYTYLGAYYIGYYWGQGTQVTVSS | low polyreactivity |
| QVQLVESGGGLVQAGGSLRLSCAASGRTFYVYAMGWYRHAPGKERELVASIRRSGGITYYADSVKGRFTISRDNAKNTVYLQMNSLKPEDTAVYYCNARRGPGRREYDYWGQGTQVTLSS | high polyreactivity |
| QVQLVESGGGLVQAGGSLRLSCAASGSIFYNNAMGWYRQAPGKERELVATIRRSGGSTYYADSVKGRFTISRDNAKNTVYLQMNSLKPEDTAVYYCAADYTPDLLSKVDYWGQGTQVTVSS | low polyreactivity |
| QVQLVESGGGLVQAGGSLRLSCAASGSTFTGYTKGWYRQAPGKERELVAAITYRGGSTYYADSVKGRFTISRDNAKNTVYLQMNSLKPEDTAVYYCAAVPEYYEYSPYDYWGQGTQVTVSS | low polyreactivity |
| QVQLVESGGGLVQAGGSLRLSCAASGLTLGRNAMGWYRQAPGKERELVAAITQSGGSTYYADSVKGRFTISRDNAKNTVYLQMNSLKAEDTAVYYCAAEVVRQWHGIGYDYWGQGTQVTVSS | low polyreactivity |
| QVQLVESGGGLVQAGGSLRLSCAASGLTFSTYDMGGYRQAPGKERELVAAITSGDGSTYYADSVKGRFTISRDNAKNTVYLQMNSLKPEDTAVYYCAADYLEWYGDVLFPYDYWGQGTQVTVSS | low polyreactivity |
| QVQLVESGGGLVQAGGSLRLSSAAYGRIFAANANGWYRQAPGKERELVAAISSGGSTNYADSVKGRFTISRDNAKNTVYLPMISLKPEDTAVYYCAADASWYAYCYYYWGQGTQVTVSS | low polyreactivity |
| QVQLVESGGGLVQAGGSLRLSCAASGSIFRWYDMGWYRQAPGKERELVAVISKRGGSTYYADSVKGRFSISRDNAKNTVYLQMTSLKPEDTAVYSCAKRYERWQLARLDYWGQGTQVTVSS | high polyreactivity |
| QVQLVESGGGLVQAGGSLRLSCAATGFTFIHYGMGWYRQAPGKERELVAAITWRGDRTYADSVKGRFTISRDNANNTVYLQMNSLKPEDTAVYYCAAVSANQDFDYWGQGTQVTVSS | high polyreactivity |
| QVQLVESGGGLVQAGGSLRLSCDASGRIFTTYAMGWYRQAPGKERELVARITWSAGRTYYADSVKGRFTISRDNAKNTVYLQMNSLKPEDTAVYYCAADGGISAGANSGYDYWGQGTQVTVSS | high polyreactivity |
| QVQLVESGGGLVQAGGSLRLSCAASGRIFLSYAIGWYRQAPGKERELVAAITSSGGSTYYADSVKGRFTISRDNAKNTVYFQMNSLKPEDTAVYYCAADYGDPRVNEYDYWGQGTQVTVSS | low polyreactivity |

| Sequence | polyreactivity (PSR sort gate) |
| --- | --- |
| QVQLQESCGGLVQEAGSLRLSCAASGNISPPADMGWYRQAPGKQRELVASIGTGGTTNYADSEKGRFTISRDNAKNTVYLQMNSLKPEDSAVYYCNVDIGVYAYESDYWGQGTQVTVSS | low polyreactivity |
| QVQLVESGGGLVQAGGSLRLSCAASGIIFSEYAMGWYRQAPGKERELVAAISKSGGRTYYADSVKGRFTISRDNAKNTVYLQMNSLKPEDTAVYYCAARHAPILGDHGDYDYWGQGTQVTVSS | high polyreactivity |
| QVQLVESGGRLVQAGGSLRLSCAASGSTFVYYAMGWYRQAPGKERELVASINSGGSTYYADSVKGRFTISRDNAKNTVYLQMNSLKQEDTAVYDCAATSIPPSVHLQDPTYDYWGQGTQVTVSS | low polyreactivity |
| QVQLVESGGGLVQAGGSLRLSCAASGFIFWDYAMGWYRQAPGKERELVAAISDSGGDTYYADSVKGRFTISRDNAKNTVYFQMNSLKPEDTAVYYCAADVELWVFRGQQYDYWGQGTQVTVSS | low polyreactivity |
| QVQLVESGGGLVQAGGSLRLSCAASGSTFDTNAMGWSRQAPGKERELVAAISASGGSTYYADSVKGRFTISRDNAKNTVYLQMNSLKPEDTAVYYCAKTYSTRWWGNGGDYWGQGTQVTVSS | high polyreactivity |
| QVQLLESGGGLVQAGGSLRLSCAASGRIFPRYAMGWYRQAPGKERELVASITRRGGSTYYADSVKGRFTISRDNAKNTVYLQMNSLKPEDTAVYYCNALPRAQSYELYNYWGQGTQVTVSS | high polyreactivity |
| QVQLVESGGGLVQAGGSLRLSCAASGGIFWRYAMGWYRQAPGKERELVAAISSRGGSTYYADSVKGRFTISRDNAKNTVYLPMNSLKPEYTAVYYCAAAFLSRVQGYDSWGQGTQVTVSS | high polyreactivity |
| QVQLVESGGGLVQSGGSLRLSCAASGRIFVYYAMGWYIQAPGKEMELVAAIDGSDGTTYYADSVKGRFTISRDNAKNTVYLQMNSLKPEDTSVYYCAKDNSLPDYDYWGQGTQVTVSS | low polyreactivity |
| QVQLVESGGGLVQAGGSLRLSCAASGFTFRYYAMGWYRQAPGKERELVAAISSGGNTRYADSVKGRFTISRDNAKNTVYLQMNSLKPEDTAVYYCARRPGAWKYVYTGDYWGQGTQVTVSS | high polyreactivity |
| QVQLVESGGGLDLAGGSLRLSCAASGRTFLYYAMGWYRQAPWKDREFVASIRRGGGSTYYADSVKGRFTFSRDNAKHTVYLQMHSLKPVDTAVYYCAAQPYTLSLFRLNYDYWGQGTQVTVSS | low polyreactivity |
| QVHLVDSGGGLVQAGGSLRLSCAASGSTIKTYTKGWYRQAPGKERELVAGITSGVSTSYADSVKGRFTISRDNAKNTVYLQMNSLKPEDTAVYYCNADAYLVIYFYTVRDYGYDYWGQGTQVTVSS | low polyreactivity |
| QVQLVESGGGLVQAGGSLRLSCAASGSTFRWYGMGWYRQAPGKERELVAVITRGGSTYYADSVKGRFTISRDNAKNTVYLQMNSLKPEDTAVYYCARVRGPNNAFYLGSTYGYWGQGTQVTVSS | high polyreactivity |
| QVQLVESGGGLVQAGGSLRLSCAASGSIFAINAMGWYRQAPGKERELVARISWSGGRTYYADSVKGRFTISRDNAKNTVYLQMNSLKPEDTAVYYCAKRYYKSLNRDEFDSWGQGTQVTVSS | high polyreactivity |
| QVQIVESGGGLVQAGGSLSLICAASGYIFGNYAMGWYRQAPGKESELVADITWRGDSTYADSVKGRFTISRDNSKNTVYLQMNSLKPEDTAVYYCAADIATEYWYTGYDHWGQGTQVTVSS | low polyreactivity |
| QVQLEESGGGLVQAGGSLRLSCAASGRTFDIYAMGWYRQATGKERELVAAISSGGSTYYADSVKGRFTISRDNAKNTVFLQMNSLKPEDTAVYYCAVRWYDQVSRRGIGYYWGQGTQVTVSS | low polyreactivity |
| QVQLVESGGGLVQAGGSLRLSCAASGRTFRNYAMGWSRPAPWKERELVATITSSGASTYYADSVKGRFTISRDNAKNTVYLQMNSLKPEDTAVYYCAARPYTGRYFLCYYYWGQGTQVTVSS | high polyreactivity |
| QVQLVESGGGLVQAGVSLRLSCAASGSTLVLNAMGWYRQAPGKERELDAAISRGGGSTSYADSVKGRFTISRDNAKNTVYLQMNSLKPEDTAVYYCNAYTYYHANHVQGFGYWGQGTQVTVSS | low polyreactivity |
| QVQLVESGGGLVQAGGSLRLSCAASGSTIRHYAMGWYRQAPGKERELVAAISYSGGSTYYADSVKGRFTISRYNAKNNVYLQMNSLKPEDTAVYYCAARSPSKMGYWGQGTQVTVSS | high polyreactivity |
| QVQLVESGGGLVQAGGSHRLSCAASGLTFRKYAMGWYRQAPGKERELVATISRNGGSTYYADSVKGRFTISRDNAKNTVYLQMNSLKPEDTAVYYCAADYYTYDYAGYGDWGQGTQVTVSS | high polyreactivity |
| QVQLLESGGGLVQAGGSLRFTGAASGSTIAGNAMVWYRHEPGKERELVAVITRGGSTNYADSVKGRFTISRDNAKNNVYLQMNSLKPEDTAVYYCARYRFLLDYWRGGYYWGQGTQVTVSS | high polyreactivity |
| QVQLVESGGGLVQAGGSLRLSCAASGRIFKRYAMGWYRQAPGKERELVATITNGGRTSYADSVKGRFTISRDNAKNTVYLQMNSLKPEDTAVYYCNAYGQTSRPLVYGWRYDYWGQGTQVTVSS | high polyreactivity |
